From patent US7790673 (dated 2010)

Columns and labels:
Aβ1-42 synthetic peptide = Aβ1-42 synthetic peptide (UniProt P05067 672-713); assay: ELISA
Aβ1-40 synthetic peptide = Aβ1-40 synthetic peptide (UniProt P05067 672-711); assay: ELISA
Sequence of Aβ1-40 synthetic peptide (P05067 672-711): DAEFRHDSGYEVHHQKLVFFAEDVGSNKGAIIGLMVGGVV

Sequence of Aβ1-42 synthetic peptide (P05067 672-713): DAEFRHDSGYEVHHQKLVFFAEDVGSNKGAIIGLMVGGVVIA

Kd (Aβ1-42 synthetic peptide) [nM] | Kd (Aβ1-40 synthetic peptide) [nM] | Binder
10.6 | 16.4 | wild type human cystatin C (other) SSPGKPPRLVGGPMDASVEEEGVRRALDFAVGEYNKASNDMYHSRALQVVRARKQIVAGVNYFLDVELGRTTCTKTQPNLDNCPFHDQPHLKRKAFCSFQIYAVPWQGTMTLSKSTCQDA
6.6 | 9 | urinary cystatin C (Calbiochem Biosciences) (other) SSPGKPPRLVGGPMDASVEEEGVRRALDFAVGEYNKASNDMYHSRALQVVRARKQIVAGVNYFLDVELGRTTCTKTQPNLDNCPFHDQPHLKRKAFCSFQIYAVPWQGTMTLSKSTCQDA
5.9 | 9.2 | variant human cystatin C (L68Q, HCHWA-I variant) (other) SSPGKPPRLVGGPMDASVEEEGVRRALDFAVGEYNKASNDMYHSRALQVVRARKQIVAGVNYFLDVEQGRTTCTKTQPNLDNCPFHDQPHLKRKAFCSFQIYAVPWQGTMTLSKSTCQDA
